The target in test [1] is T1, C5 hemolytic activity in mouse serum (Mus musculus, UniProt P06684).
T1 construct: from tissue; host or cells: mouse serum
The test is described as follows: Inhibition of C5 hemolytic activity in serum. Format: biochemical. To be noted: FIG. 5D. How it is done:
Measurements were performed as described in example 8, using sera from human (panel A), rat (panel B), rabbit (panel C), mouse (panel D). Since the amino acid sequence corresponding to the cleavage site of convertase on the C5 alpha chain is conserved in several animal species, it was furthermore evaluated, by hemolytic assay, the ability of TS-A12/22 antibody to inhibit conversion of C5 to C5a also in rabbit, mouse and rat sera.

For the next test, the target named is T2, C5 (Homo sapiens, UniProt P01031).
T2 construct: C5 alpha and beta subunits were obtained by incubating 50 μg of C5; purchased Quidel
As to the kind of experiment: ELISA of C5a released after cleavage of C5 by C5 convertase. The format is biochemical. To be noted: FIG. 1A, classical pathway. Here is the method:
Panel A) The ELISA assay measures the amount of C5a fragment released in the supernatant after enzymatic cleavage of C5, using antibodies anti-C5 as described in example 6. […] Sheep erythrocytes sensitised with antibodies and coated until the C3b (EAC1-3b) complement step were added to the mixture of TS-A12 or TS-A12/22 and C5, and the mixture was further incubated for 30 minutes at 37° C. (panel B).
The obtained anti-C5 scFv fragments were further characterised for their ability to inhibit the hemolytic activity of C5 or, in other words, to block conversion of the C5 component to C5a. […] At the end of this procedure, cell lysis was measured as percentage of the control of total lysis in distilled H2O (see FIG. 1, panel B). The inhibition of C5a and TCC production by the scFv TS-A12 and TS-A12/22 was measured by means of ELISA using the monoclonal antibody 17/5 as the capture antibody and antibody G25/2 as detection antibody according to what has been described in Opperman et al., 1991, Complement Inflamm. […] The presence of TCC was measured using antibody aE11 as the capture antibody and a biotinylated anti-C5 antibody (SIGMA-ALDRICH®) followed by alkaline phosphatase-conjugated streptavidin, as described by Tedesco et al. (1997, J Exp. Med. 185:1619).
Background: ELISA stands for enzyme-linked immunosorbent assay.

A further test concerns C4. The test is described as follows: Specificity on other complement components. The format is binding. Here is the method:
(§1) (The specificity of TS-A12/22 antibody was evaluated also on other components of the complement cascade, as for instance C3 and C4, which are structurally similar to C5, but cross-reactivity was not found).

The target of another test is C3 (Homo sapiens, UniProt P01024). The test is described as follows: Specificity on other complement components. The format is binding. How it is done: as §1

The values below come from patent US8962819B2, “Anti-C5 alpha antibodies” (Adienne S.A., priority 2002, dated 2015).

T2 sequence (P01031 678-1676 limits assumed): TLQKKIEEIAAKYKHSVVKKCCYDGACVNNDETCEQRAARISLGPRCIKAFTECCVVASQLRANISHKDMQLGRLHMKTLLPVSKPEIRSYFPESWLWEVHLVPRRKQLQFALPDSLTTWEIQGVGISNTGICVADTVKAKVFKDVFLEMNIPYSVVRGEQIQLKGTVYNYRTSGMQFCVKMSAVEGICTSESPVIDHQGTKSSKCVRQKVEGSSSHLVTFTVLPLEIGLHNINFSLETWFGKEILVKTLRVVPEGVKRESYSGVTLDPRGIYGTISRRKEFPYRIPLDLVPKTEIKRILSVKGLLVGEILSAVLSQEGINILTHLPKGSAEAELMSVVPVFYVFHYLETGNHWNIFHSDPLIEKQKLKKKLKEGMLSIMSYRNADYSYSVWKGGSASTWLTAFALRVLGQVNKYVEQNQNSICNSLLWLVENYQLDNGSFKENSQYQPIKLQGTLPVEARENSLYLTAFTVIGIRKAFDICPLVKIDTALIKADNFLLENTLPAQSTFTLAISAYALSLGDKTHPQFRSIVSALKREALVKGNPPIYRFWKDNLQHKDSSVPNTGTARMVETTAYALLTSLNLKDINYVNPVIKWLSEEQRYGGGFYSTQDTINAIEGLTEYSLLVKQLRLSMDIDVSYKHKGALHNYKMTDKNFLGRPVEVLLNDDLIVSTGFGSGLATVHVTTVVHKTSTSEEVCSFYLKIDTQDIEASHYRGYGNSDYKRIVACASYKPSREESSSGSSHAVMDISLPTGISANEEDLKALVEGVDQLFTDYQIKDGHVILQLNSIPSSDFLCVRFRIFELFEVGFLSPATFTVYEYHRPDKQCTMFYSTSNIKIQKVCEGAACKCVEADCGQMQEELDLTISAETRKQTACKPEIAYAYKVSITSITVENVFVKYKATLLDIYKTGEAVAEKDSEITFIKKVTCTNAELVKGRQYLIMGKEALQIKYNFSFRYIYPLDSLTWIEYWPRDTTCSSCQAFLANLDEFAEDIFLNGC
T2 sequence (P01031 19-673 partner limits assumed): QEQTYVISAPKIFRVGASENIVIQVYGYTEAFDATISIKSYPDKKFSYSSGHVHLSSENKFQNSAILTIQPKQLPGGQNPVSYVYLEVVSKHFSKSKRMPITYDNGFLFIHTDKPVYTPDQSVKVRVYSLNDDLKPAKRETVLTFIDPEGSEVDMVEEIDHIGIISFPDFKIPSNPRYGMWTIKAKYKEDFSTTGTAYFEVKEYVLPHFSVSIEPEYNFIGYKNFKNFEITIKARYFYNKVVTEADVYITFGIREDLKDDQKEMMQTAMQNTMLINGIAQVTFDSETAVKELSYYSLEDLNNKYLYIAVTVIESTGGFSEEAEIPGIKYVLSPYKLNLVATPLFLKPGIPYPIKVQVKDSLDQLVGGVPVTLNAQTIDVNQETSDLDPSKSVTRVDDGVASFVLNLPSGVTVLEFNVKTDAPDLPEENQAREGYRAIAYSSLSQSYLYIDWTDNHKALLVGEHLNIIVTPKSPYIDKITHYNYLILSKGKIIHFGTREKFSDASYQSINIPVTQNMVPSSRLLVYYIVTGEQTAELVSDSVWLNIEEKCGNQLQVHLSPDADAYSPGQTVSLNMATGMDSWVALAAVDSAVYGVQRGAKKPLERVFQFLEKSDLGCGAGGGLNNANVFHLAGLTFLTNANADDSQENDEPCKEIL
T1 sequence (P06684 679-1680 limits assumed): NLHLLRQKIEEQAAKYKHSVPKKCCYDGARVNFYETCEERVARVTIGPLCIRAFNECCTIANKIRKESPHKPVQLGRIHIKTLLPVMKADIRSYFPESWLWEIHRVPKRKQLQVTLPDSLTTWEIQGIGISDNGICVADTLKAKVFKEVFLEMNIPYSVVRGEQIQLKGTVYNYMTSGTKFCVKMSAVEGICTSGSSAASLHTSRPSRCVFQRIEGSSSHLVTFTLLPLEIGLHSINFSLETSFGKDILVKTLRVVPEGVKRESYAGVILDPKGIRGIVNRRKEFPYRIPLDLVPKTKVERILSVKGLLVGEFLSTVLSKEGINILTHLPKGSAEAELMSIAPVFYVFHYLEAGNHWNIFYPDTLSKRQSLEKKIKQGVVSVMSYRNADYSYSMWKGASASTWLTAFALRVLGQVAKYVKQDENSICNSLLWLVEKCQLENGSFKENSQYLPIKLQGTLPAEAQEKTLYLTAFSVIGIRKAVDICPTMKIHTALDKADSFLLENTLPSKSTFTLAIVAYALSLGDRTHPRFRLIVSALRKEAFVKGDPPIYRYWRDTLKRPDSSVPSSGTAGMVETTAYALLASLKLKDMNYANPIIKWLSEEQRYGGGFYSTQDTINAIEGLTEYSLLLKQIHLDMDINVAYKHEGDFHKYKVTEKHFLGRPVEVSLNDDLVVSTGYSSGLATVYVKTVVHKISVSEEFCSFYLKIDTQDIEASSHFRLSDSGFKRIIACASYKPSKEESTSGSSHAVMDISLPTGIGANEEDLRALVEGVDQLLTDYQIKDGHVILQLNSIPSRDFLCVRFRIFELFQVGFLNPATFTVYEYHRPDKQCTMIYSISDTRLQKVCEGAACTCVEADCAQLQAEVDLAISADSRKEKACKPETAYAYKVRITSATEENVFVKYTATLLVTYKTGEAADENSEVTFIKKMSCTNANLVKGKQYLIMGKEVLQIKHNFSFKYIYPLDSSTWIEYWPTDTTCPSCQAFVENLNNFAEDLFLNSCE
T1 sequence (P06684 19-674 partner limits assumed): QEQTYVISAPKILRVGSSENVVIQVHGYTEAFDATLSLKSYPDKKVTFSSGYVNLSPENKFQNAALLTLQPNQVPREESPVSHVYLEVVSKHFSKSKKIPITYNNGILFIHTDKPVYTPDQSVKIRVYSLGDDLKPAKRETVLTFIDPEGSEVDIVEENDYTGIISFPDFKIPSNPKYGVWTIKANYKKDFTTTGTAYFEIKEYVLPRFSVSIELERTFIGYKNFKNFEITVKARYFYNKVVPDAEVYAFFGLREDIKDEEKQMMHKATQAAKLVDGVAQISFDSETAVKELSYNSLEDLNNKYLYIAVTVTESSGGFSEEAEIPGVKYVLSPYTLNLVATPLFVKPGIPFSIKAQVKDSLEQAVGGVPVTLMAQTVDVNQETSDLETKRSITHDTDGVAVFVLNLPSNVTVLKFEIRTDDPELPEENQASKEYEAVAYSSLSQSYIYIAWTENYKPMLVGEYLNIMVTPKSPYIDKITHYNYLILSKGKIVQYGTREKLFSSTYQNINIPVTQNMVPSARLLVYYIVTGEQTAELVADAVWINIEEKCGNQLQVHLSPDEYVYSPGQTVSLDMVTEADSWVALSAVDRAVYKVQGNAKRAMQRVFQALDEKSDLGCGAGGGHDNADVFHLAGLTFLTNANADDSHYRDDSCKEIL
Chain of C3 (P01024 23-1663): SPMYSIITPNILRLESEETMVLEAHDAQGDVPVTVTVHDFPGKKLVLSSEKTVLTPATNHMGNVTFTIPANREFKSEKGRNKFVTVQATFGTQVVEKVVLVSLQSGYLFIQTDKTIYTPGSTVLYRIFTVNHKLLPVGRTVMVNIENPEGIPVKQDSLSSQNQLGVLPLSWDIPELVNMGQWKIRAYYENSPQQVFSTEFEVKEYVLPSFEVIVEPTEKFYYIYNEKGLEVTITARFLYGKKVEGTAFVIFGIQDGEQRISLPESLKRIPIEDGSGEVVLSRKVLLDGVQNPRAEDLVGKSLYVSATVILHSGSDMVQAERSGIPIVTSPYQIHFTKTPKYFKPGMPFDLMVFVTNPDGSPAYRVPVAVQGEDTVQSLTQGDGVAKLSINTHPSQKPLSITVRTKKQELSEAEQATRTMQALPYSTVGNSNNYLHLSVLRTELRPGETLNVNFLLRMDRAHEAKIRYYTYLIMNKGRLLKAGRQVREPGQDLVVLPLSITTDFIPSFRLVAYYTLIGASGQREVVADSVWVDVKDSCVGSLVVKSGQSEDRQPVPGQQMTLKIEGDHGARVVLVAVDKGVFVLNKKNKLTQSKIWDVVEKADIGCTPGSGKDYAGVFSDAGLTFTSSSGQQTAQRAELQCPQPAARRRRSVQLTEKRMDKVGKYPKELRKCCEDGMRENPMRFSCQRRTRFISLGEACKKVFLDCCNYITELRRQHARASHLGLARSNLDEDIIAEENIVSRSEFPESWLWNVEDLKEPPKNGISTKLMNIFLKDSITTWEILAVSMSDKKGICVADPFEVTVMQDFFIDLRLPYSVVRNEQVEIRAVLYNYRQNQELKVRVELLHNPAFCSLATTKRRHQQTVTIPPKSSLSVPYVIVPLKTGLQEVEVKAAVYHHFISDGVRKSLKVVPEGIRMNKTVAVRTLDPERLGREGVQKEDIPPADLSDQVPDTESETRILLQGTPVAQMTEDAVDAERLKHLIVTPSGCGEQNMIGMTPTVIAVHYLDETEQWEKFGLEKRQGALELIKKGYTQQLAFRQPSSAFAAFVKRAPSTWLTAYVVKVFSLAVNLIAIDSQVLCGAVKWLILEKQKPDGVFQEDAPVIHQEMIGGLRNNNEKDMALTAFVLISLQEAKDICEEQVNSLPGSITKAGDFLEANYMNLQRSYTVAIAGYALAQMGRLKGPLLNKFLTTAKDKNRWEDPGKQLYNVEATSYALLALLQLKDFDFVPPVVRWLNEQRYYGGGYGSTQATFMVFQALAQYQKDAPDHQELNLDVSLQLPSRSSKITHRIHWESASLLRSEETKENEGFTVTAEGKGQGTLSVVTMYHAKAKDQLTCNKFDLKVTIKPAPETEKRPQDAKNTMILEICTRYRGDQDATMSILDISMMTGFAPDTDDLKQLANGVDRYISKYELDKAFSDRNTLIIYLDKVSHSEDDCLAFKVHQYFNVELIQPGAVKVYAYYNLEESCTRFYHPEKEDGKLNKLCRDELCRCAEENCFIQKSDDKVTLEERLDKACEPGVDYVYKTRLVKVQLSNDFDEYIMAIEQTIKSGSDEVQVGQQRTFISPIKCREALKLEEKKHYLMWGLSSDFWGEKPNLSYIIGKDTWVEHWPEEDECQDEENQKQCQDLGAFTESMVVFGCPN

B1: TS-A12/22: anti-C5 scFv obtained from TS-A12 by VL chain shuffling; VH3/V-48 and Vλ3/V2-14; amino acid sequence SEQ ID NO:6 (protein, listed as Homo sapiens)
scFv: DIRMTQSPDSLAVSLGERATINCKSSQSVLYSSNNKNYLAWYQQKPGQPPKLLIYWASTRESGVPDRFSGSGSGTDFTLTISSLQAEDVAVYYCQQYYSTPQLTFGGRTKVDIKSGGSTITSYNVYYTKLSSSGTQVQLQQSEGGVVQPGRSLRLSCAASGFTFSSYGMNWVRQAPGKGLEWVSYISSSSSTIYYADSVKGRFTISRDNSKNTLYLQMNSLRAEDTAVYYCARGPGMDVWGQGTTVTVSS
Take B1: the “inhibition of hemolytic activity in serum” value in test [1] is on record as “capable of inhibiting”. The “inhibition of formation of C5a” value with C5 is on record as “inhibit almost completely”. The “cross-reactivity with C4” value with C4 is given as “not found”. Further, the “cross-reactivity with C3” value in the test with C3 was “not found”.
